# According to patent US20060252116A1, “Icam-4 binding sites” (priority 2002, published 2006):
# Legend:
# α4β1 integrin (VLA-4) [1] = molecular target: α4β1 integrin (VLA-4) (UniProt P13612); test: HEL cell adhesion to coated human NCAMFc (control), no peptide
# α4β1 integrin (VLA-4) [2] = molecular target: α4β1 integrin (VLA-4) (UniProt P13612); test: HEL cell adhesion to coated human ICAM-4Fc (2.5 ug/ml); value is for the MIXTURE of SEQ ID NO: 9, 10 and 11, each peptide 750 uM
# α4β1 integrin (VLA-4) [3] = molecular target: α4β1 integrin (VLA-4) (UniProt P13612); test: HEL cell adhesion to coated human ICAM-4Fc (2.5 ug/ml); value is for the MIXTURE of SEQ ID NO: 10 and 11, each peptide 750 uM
# α4β1 integrin (VLA-4) [4] = molecular target: α4β1 integrin (VLA-4) (UniProt P13612); test: HEL cell adhesion to coated human ICAM-4Fc (2.5 ug/ml), peptide 750 uM; competitor human ICAM-4Fc
# α4β1 integrin (VLA-4) [5] = molecular target: α4β1 integrin (VLA-4) (UniProt P13612); test: HEL cell adhesion to coated human ICAM-4Fc (2.5 ug/ml); value is for the MIXTURE with control peptide SEQ ID NO: 13, each peptide 750 uM
# α4β1 integrin (VLA-4) [6] = molecular target: α4β1 integrin (VLA-4) (UniProt P13612); test: HEL cell adhesion to coated human ICAM-4Fc (2.5 ug/ml); value is for the MIXTURE of SEQ ID NO: 9, 11 and control peptide 13, each peptide 750 uM
# α4β1 integrin (VLA-4) [7] = molecular target: α4β1 integrin (VLA-4) (UniProt P13612); test: HEL cell adhesion to coated human ICAM-4Fc (2.5 ug/ml); value is for the MIXTURE of SEQ ID NO: 9 and 11, each peptide 750 uM
# α4β1 integrin (VLA-4) [8] = molecular target: α4β1 integrin (VLA-4) (UniProt P13612); test: HEL cell adhesion to coated human ICAM-4Fc (2.5 ug/ml); value is for the MIXTURE of SEQ ID NO: 10, 11 and control peptide 13, each peptide 750 uM
# α4β1 integrin (VLA-4) [9] = molecular target: α4β1 integrin (VLA-4) (UniProt P13612); test: HEL cell adhesion to coated human ICAM-4Fc (5 ug/ml); value is for the MIXTURE of SEQ ID NO: 9 and 10, each peptide 500 uM
# α4β1 integrin (VLA-4) [10] = molecular target: α4β1 integrin (VLA-4) (UniProt P13612); test: HEL cell adhesion to coated human ICAM-4Fc (5 ug/ml), peptide 500 uM; competitor human ICAM-4Fc
# α4β1 integrin (VLA-4) [11] = molecular target: α4β1 integrin (VLA-4) (UniProt P13612); test: HEL cell adhesion to coated murine ICAM-4Fc (5 ug/ml), peptide 500 uM; competitor murine ICAM-4Fc
# α4β1 integrin (VLA-4) [12] = molecular target: α4β1 integrin (VLA-4) (UniProt P13612); test: HEL cell adhesion to coated human ICAM-4Fc (5 ug/ml); value is for the MIXTURE with control peptide SEQ ID NO: 13, each peptide 500 uM
# α4β1 integrin (VLA-4) [13] = molecular target: α4β1 integrin (VLA-4) (UniProt P13612); test: HEL cell adhesion to coated murine ICAM-4Fc (5 ug/ml); value is for the MIXTURE with control peptide SEQ ID NO: 13, each peptide 500 uM
# α4β1 integrin (VLA-4) [14] = molecular target: α4β1 integrin (VLA-4) (UniProt P13612); test: HEL cell adhesion to coated human ICAM-4Fc (2.5 ug/ml); value is for the MIXTURE of SEQ ID NO: 9 and 10, each peptide 750 uM
# α4β1 integrin (VLA-4) [15] = molecular target: α4β1 integrin (VLA-4) (UniProt P13612); test: HEL cell adhesion to coated murine ICAM-4Fc (5 ug/ml); value is for the MIXTURE of SEQ ID NO: 9 and 10, each peptide 500 uM
# α4β1 integrin (VLA-4) [16] = molecular target: α4β1 integrin (VLA-4) (UniProt P13612); test: HEL cell adhesion to coated human ICAM-4Fc (2.5 ug/ml); value is for the MIXTURE of SEQ ID NO: 9, 10 and control peptide 13, each peptide 750 uM
# Chain of α4β1 integrin (VLA-4) (P13612 34-1032, chain 1 of 2): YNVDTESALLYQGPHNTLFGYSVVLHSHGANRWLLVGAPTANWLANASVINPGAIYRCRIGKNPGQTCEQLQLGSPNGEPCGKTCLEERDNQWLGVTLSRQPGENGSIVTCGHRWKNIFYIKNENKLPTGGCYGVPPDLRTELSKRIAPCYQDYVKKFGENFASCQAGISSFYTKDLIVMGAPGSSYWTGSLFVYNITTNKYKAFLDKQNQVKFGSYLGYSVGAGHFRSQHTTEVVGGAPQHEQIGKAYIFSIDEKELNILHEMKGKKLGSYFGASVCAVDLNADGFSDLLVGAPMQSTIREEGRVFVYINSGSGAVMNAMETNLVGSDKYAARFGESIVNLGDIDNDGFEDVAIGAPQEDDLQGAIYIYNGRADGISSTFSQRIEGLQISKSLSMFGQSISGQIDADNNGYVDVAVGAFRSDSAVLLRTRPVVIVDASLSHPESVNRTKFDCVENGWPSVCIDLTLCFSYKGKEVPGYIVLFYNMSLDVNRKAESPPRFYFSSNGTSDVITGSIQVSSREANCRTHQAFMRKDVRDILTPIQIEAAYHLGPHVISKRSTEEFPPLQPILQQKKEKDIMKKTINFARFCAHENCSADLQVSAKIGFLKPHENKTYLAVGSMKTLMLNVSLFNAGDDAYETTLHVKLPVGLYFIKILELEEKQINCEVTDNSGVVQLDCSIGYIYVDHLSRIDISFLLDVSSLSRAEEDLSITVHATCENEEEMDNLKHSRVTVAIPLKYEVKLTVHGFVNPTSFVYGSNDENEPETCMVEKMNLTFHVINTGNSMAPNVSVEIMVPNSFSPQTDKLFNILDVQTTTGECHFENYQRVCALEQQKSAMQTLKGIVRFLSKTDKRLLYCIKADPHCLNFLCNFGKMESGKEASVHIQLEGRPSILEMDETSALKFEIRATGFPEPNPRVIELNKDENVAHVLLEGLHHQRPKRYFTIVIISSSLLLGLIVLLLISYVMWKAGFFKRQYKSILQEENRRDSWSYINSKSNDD
# Chain of α4β1 integrin (VLA-4) (P05556 21-798, chain 2 of 2, further chain): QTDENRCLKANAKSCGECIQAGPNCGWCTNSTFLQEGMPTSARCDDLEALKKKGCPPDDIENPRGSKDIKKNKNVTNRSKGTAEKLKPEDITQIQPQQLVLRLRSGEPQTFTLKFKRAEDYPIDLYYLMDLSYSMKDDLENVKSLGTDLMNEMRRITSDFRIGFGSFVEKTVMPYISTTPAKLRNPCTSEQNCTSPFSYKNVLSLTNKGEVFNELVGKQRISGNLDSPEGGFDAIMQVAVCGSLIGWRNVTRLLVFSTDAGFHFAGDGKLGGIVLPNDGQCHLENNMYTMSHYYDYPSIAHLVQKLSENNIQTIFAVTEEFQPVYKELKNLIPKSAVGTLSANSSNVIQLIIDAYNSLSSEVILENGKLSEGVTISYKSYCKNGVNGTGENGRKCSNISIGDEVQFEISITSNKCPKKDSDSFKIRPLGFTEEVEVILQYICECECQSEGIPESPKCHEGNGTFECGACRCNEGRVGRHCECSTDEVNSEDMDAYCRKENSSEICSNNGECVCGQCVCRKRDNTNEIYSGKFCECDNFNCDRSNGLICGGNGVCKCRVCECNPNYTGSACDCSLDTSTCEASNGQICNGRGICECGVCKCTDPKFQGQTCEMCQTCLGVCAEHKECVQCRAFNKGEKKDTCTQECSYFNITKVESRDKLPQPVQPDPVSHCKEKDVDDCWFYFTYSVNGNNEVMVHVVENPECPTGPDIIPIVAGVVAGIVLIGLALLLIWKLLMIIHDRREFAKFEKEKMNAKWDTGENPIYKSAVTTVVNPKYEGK
input cells bound as % of binding to ICAM-4Fc in the absence of peptides (α4β1 integrin (VLA-4) [1]),input cells bound as % of binding to murine ICAM-4Fc in the absence of peptides (α4β1 integrin (VLA-4) [1]),input cells bound as % of binding to ICAM-4Fc in the absence of peptides (α4β1 integrin (VLA-4) [2]),input cells bound as % of binding to ICAM-4Fc in the absence of peptides (α4β1 integrin (VLA-4) [3]),input cells bound as % of binding to ICAM-4Fc in the absence of peptides (α4β1 integrin (VLA-4) [4]),input cells bound as % of binding to ICAM-4Fc in the absence of peptides (α4β1 integrin (VLA-4) [5]),input cells bound as % of binding to ICAM-4Fc in the absence of peptides (α4β1 integrin (VLA-4) [6]),input cells bound as % of binding to ICAM-4Fc in the absence of peptides (α4β1 integrin (VLA-4) [7]),input cells bound as % of binding to ICAM-4Fc in the absence of peptides (α4β1 integrin (VLA-4) [8]),input cells bound as % of binding to ICAM-4Fc in the absence of peptides (α4β1 integrin (VLA-4) [9]),input cells bound as % of binding to ICAM-4Fc in the absence of peptides (α4β1 integrin (VLA-4) [10]),input cells bound as % of binding to murine ICAM-4Fc in the absence of peptides (α4β1 integrin (VLA-4) [11]),input cells bound as % of binding to ICAM-4Fc in the absence of peptides (α4β1 integrin (VLA-4) [12]),input cells bound as % of binding to murine ICAM-4Fc in the absence of peptides (α4β1 integrin (VLA-4) [13]),input cells bound as % of binding to ICAM-4Fc in the absence of peptides (α4β1 integrin (VLA-4) [14]),input cells bound as % of binding to murine ICAM-4Fc in the absence of peptides (α4β1 integrin (VLA-4) [15]),input cells bound as % of binding to ICAM-4Fc in the absence of peptides (α4β1 integrin (VLA-4) [16]),Substance
3%,19%,–,–,–,–,–,–,–,–,–,–,–,–,–,–,–,human NCAMFc (from UniProt P13591 20-718) (Fc fusion)
–,–,42%,41%,50%,46%,42%,43%,40%,–,–,–,–,–,–,–,–,aWssLahcl peptide (SEQ ID NO: 11)
–,–,42%,–,64%,59%,42%,43%,–,35%,61%,67%,60%,70%,52%,47%,49%,svpFWVrms peptide (SEQ ID NO: 9)
–,–,42%,41%,58%,55%,–,–,40%,35%,58%,58%,56%,55%,52%,47%,49%,tRwATSRit peptide (SEQ ID NO: 10)
